Data reported in article PMC11045745, “NMR characterization of RNA binding property of the DEAD-box RNA helicase DDX3X and its implications for helicase activity”.

Target: DDX3X core WT (Homo sapiens, UniProt O00571 132-607)
Assay: NMR (13C-1H HMQC); AMPPNP; apparent affinity lower than E348Q with ATP; EMSA: 20 mM HEPES-NaOH pH 7.4, 100 mM NaCl, 5 mM DTT, 10% glycerol, 5 mM ATP/MgCl2 or ADP/EDTA, 100 nM RNA; NMR: 35 C (30 C for UA-12mer), 40-50 uM protein (HMQC) or 100 uM RNA (19F), 5 mM ATP/MgCl2; NMR buffer not given in the material
Conditions: protein: recombinant; tags: His6-SUMO removed (Ulp1); two-Gly linker

DDX3X core WT, sequence (O00571 132-607): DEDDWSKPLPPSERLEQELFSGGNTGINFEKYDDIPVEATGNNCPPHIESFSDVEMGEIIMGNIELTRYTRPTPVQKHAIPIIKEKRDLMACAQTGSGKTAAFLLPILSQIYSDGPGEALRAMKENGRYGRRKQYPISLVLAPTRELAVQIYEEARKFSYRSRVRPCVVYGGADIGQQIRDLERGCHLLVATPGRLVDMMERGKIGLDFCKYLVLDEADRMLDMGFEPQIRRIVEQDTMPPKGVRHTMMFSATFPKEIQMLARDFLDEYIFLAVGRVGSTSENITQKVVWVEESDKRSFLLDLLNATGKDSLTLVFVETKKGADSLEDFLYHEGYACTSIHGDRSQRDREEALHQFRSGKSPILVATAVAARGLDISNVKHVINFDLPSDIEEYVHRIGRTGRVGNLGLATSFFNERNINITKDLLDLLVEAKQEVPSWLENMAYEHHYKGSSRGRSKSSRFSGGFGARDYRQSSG

## UUUUUUUUUU (ssRNA) [poly-U10]
  binding result: binds
